These results are taken from patent US20220195063A1 (BYONDIS B V, published 2022).

Numbering of substitutions follows the chain as printed.

To fix the notation:
B1: anti-SIRPα antibody 11 humanized (antibody, human IgG1, kappa, L234A L235A, V domains shown)
VH: EVKVEESGGGLVQPGGSLRLSCAASGFSLSSYVMGWVRQAPGKGLEWVSIISSSGSPYYASWVNGRFTISKTSTTMDLQMNSLRAEDTAVYYCARVGPLGVDYFNIWGQGTTVTVSS
VL: DIQMTQSPSSLSASVGDRVTITCQAGQSINSYLAWYQQKPGKVPKLLIYYASTLESGVPSRFSGSGSGTDFTLTISSLQPEDVATYYCQSWHYISRSYAFGQGTKVEIKR
notes: Humanized, human IgG1 LALA / kappa
B2: anti-SIRPα antibody 13 humanized (antibody, human IgG1, V domains shown)
VH: RQLVESGGGLVQPGGSLRLSCTASGFSLSSHGISWVRQAPGKGLEYIGTIGTGVITYFASWAKGRFTGSKTSSTAYMELSSLRSEDTAVYFCARGSAWNDPFDPWGQGTLVTVSS
VL: AIQMTQSPSSLSASVGDRVTITCQASQSVYGNNDLAWYQQKPGKAPKLLIYLASTLATGVPSRFSGSGSGTDFTLTISSLQPEDFATYYCLGGGDDEADNVFGGGTKVEIKR
notes: as for B1
B3: anti-SIRPα antibody 14 humanized (antibody, human IgG1, V domains shown)
VH: B2 VH
VL: B2 VL with A1D, Q3E, L11V, I21L, K44Q
notes: as for B1
B4: anti-SIRPα antibody 10 humanized (antibody, human IgG1, kappa, L234A L235A, V domains shown)
VH: KVEESGGGLVQPGGSLRLSCAASGFSLSSYVMGWVRQAPGKGLEWVSIISSSGSPYYASWVNGRFTISKDNSEGMVYLQMNSLRAEDTAVYYCARVGPLGVDYFNIWGQGTTVTVSS
VL: DIVMTQSPDSLAVSLGERATINCQAGQSINSYLAWYQQKPGQPPKLLIYYASTLESGVPDRFSGSGSGTDFTLTISSLQAEDVAVYYCQSWHYISRSYAFGGGTKLEIKR
notes: as for B1
B5: anti-SIRPα antibody 4 (antibody, human IgG1, kappa, L234A L235A, V domains shown)
VH: QSVEESGGRLGTPGTPLTLTCTVSGFSLSSYVMGWFRQAPGKGLEYIGIISSSGSPYYASWVNGRFTISKTSTTMDLKMNSPTTEDTATYFCARVGPLGVDYFNIWGPGTLVTVSL
VL: DIVMTQTPSSVEAAVGGTVTIKCQAGQSINSYLAWYQQKPGQRPKLLIYYASTLESGVPSRFKGSGSGTDYTLTISDLESADAATYYCQSWHYISRSYAFGGGTEVVVKR
notes: Chimeric: rabbit variable regions on human IgG1 LALA / kappa; also called chimeric antibody 4
B6: anti-SIRPα antibody 12 humanized (antibody, human IgG1, kappa, L234A L235A, V domains shown)
VH: VQLVESGGRLVQPGTPLTLSCTVSGFSLSSYVMGWFRQAPGKGLEYIGIISSSGSPYYASWVNGRFTISKTSTTMDLKMNSLRSEDTATYFCARVGPLGVDYFNIWGPGTLVTVSS
VL: B5 VL
notes: as for B1

Sequence of human SIRPαBIT expressed on cells (human) (P78324 31-504): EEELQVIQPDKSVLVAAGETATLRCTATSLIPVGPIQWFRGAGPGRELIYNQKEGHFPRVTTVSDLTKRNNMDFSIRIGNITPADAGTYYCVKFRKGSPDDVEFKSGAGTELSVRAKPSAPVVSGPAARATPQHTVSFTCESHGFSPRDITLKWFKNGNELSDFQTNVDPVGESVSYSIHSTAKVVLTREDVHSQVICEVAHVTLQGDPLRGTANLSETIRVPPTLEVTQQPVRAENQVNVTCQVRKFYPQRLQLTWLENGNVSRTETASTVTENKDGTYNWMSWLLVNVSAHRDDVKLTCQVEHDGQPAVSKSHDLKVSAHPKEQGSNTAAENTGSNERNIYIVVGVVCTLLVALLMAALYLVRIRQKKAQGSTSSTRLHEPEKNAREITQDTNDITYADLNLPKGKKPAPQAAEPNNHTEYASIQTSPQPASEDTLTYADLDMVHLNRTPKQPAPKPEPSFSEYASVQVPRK
T4 sequence (Q5TFQ8 30-371 limits assumed): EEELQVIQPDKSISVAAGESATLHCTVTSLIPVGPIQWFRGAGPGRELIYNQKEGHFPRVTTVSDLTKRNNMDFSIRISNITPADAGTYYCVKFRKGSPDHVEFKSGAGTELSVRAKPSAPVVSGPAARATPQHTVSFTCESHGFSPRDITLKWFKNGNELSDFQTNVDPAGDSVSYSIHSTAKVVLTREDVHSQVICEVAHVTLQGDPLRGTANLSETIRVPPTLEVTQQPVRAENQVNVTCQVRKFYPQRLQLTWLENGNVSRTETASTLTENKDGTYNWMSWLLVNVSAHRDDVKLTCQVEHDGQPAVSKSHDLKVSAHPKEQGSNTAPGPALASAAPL

The first assay has as its target human SIRPαBIT (huSIRPαBIT), protein antigen (human) (UniProt P78324). Nature of the assay: SPR, biotinylated antigen captured, 25 C.
One may read the Kd as the concentration at which binding is half-saturated. The molecule B1 displayed a dissociation constant (Kd) of 0.14 nM.
The same measure, in the same setting: the figure for B2 is 0.012 nM; for B3 it is 0.089 nM.
On the same count and under the same terms, the figure for B4 is under 0.01 nM; for B5 it is under 0.01 nM.
The same measure, in the same setting: to B6 belongs under 0.01 nM.

The next assay has as its target human SIRPαBIT expressed on cells (human) (UniProt P78324). Nature of the assay: flow cytometry, U937 cells. (In general: Flow cytometry measures light scatter and fluorescence of single cells or particles in a stream.)
By EC50 is commonly meant the concentration that produces a half-maximal response. Read a low EC50 as greater potency. For the molecule B1, the EC50 was found to be 0.13 µg/mL.
Still for that read-out and setting: to B2 belongs 0.14 µg/mL; to B3, 0.22 µg/mL.
B4: the EC50 amounted to 0.17 µg/mL.
The same measure, in the same setting: to B5 belongs 0.12 µg/mL.
Same read-out and setting: the figure for B6 is 0.2 µg/mL.

A further assay shares this target. Briefly: flow cytometry, ExpiCHO-S cells.
As to B1, the EC50 came out at 0.3 µg/mL.
The same measure, in the same setting: the figure for B2 is 0.23 µg/mL; for B3 it is 0.29 µg/mL; for B4 it is 0.2 µg/mL.
As to B5, the EC50 came to 0.23 µg/mL.
On the same count and under the same terms, to B6 belongs 0.46 µg/mL.

The target in another assay is human SIRPαBIT (huSIRPαBIT), protein antigen (human) (UniProt P78324). Nature of the assay: ELISA, antigen coated.
Sequence of human SIRPαBIT (huSIRPαBIT), protein antigen (human) (P78324 31-370): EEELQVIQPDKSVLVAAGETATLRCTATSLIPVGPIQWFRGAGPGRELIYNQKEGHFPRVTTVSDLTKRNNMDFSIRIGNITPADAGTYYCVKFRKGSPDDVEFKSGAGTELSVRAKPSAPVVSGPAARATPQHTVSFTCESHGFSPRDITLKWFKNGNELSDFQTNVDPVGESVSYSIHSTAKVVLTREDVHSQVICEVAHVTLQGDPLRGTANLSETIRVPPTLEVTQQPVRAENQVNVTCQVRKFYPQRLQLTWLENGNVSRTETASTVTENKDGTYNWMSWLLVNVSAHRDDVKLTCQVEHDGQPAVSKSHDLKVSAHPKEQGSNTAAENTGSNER
In the case of B5, the EC50 was determined as 0.025 µg/mL.

In a further assay the target is human SIRPβ1v1 (huSIRPβ1v1) (human) (UniProt O00241). Nature of the assay: ELISA, antigen coated. Background: ELISA stands for enzyme-linked immunosorbent assay.
Sequence of human SIRPβ1v1 (huSIRPβ1v1) (human) (O00241 30-371): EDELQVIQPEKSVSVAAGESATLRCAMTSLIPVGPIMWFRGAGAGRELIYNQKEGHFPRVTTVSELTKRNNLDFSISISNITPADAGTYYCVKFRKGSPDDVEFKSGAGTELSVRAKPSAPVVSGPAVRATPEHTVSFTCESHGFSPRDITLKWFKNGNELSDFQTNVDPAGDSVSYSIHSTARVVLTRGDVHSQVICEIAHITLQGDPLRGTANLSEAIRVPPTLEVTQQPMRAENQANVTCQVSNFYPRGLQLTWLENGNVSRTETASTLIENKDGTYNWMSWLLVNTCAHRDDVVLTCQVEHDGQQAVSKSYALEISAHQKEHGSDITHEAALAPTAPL
As to B5, the EC50 was over 100 µg/mL.

The target of a further assay is T1, human SIRPγ (huSIRPγ) (human, UniProt Q9P1W8 29-360, limits assumed, biotinylated in the SPR assay).
T1 construct: Coated on the plate in ELISA, biotinylated and captured in SPR
T1 sequence (Q9P1W8 29-360 limits assumed): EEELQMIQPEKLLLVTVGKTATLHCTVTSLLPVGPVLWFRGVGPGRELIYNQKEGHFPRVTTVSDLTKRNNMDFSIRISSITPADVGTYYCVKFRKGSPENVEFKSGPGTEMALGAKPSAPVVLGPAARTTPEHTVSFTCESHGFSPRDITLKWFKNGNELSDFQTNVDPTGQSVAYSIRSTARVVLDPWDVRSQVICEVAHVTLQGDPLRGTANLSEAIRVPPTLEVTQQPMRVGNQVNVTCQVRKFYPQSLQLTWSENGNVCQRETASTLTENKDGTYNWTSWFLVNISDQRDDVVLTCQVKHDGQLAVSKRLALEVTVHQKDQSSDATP
Briefly: SPR, biotinylated antigen captured, 25 C. As to the method:
(§1) Surface Plasmon Resonance (SPR) assay: Affinity analysis was performed by single cycle kinetics analysis on a Surface Plasmon Resonance apparatus (Biacore T200 system, GE Life Sciences) at 25° C. Biotinylated SIRP antigens were captured on the surface of a chip suitable for biotinylated molecules (Sensor Chip CAP, GE Life Sciences) by injecting 5 μg/ml of the SIRP antigen in running buffer (10 mM HEPES buffer at pH 7.4 with 150 mM NaCl, 3 mM EDTA and 0.005% v/v polyoxyethylene (20) sorbitan monolaurate (Surfactant P20) for 60 sec at 10 μL/min after injection of a streptavidin conjugate (20× diluted biotin CAPture reagent, GE Life Sciences) for 60 sec at 10 μl/min. Baseline stabilization was set at 1 min after which five increasing concentrations of an anti-SIRP antibody in running buffer (10 mM HEPES buffer at pH 7.4 with 150 mM NaCl, 3 mM EDTA and 0.005% v/v polyoxyethylene (20) sorbitan monolaurate) were injected. For each step an association time of 150 sec was used, followed by a dissociation time of 1200 sec at the highest concentration only, all at a flow rate of 30 μL/min. Regeneration was performed with 6 M guanidine-HCl, 0.25 M NaOH solution (60 sec with flow rate of 30 μL/min). Double blank subtraction was performed on the observed sensorgrams using a non anti-SIRP (blank) immobilized reference flow channel and running buffer injection. Sensorgrams were fitted with a 1:1 Langmuir model for all tested anti-SIRP antibodies. The kinetic parameters (kₐ, kd and KD) were calculated using the Biacore T200 evaluation software (v3.1).
For the molecule B1, the binding result is “no binding”.
Still for that read-out and setting: the entry for B2 is “no binding”.
Same read-out and setting: the entry for B3 is “no binding”; for B4 it is “no binding”.
Same read-out and setting: to B6 belongs “no binding”.

The next assay deals with T2, human SIRPα1 (huSIRPα1), protein antigen (human, UniProt P78324 31-370, limits assumed, biotinylated in the SPR assay).
T2 construct: Coated on the plate in ELISA, biotinylated and captured in SPR; also called v2
T2 sequence (P78324 other isoform, or with tags, fused parts or gaps limits assumed): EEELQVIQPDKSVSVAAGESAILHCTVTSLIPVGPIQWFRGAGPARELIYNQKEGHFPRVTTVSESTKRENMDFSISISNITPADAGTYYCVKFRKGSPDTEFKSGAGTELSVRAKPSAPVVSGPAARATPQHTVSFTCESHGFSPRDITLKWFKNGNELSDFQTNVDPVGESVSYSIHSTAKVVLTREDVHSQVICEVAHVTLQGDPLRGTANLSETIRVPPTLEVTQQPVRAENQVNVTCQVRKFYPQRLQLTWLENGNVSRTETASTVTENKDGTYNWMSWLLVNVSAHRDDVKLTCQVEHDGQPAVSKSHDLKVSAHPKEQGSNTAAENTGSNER
Nature of the assay: SPR, biotinylated antigen captured, 25 C. The protocol: as §1
A general note: Surface plasmon resonance follows binding to a sensor surface in real time, without labels.
Regarding B1, the dissociation constant (Kd) was 41 nM.
Still for that read-out and setting: to B2 belongs under 0.01 nM; to B3, under 0.01 nM; to B4, 3.2 nM.
Still for that read-out and setting: the figure for B5 is 0.026 nM; for B6 it is 0.059 nM.

The target in the next assay is T3, cynomolgus SIRPα (cySIRPα), protein antigen (cynomolgus monkey, UniProt A0A2K5VYQ9 31-369).
T3 construct: Coated on the plate in ELISA
T3 sequence: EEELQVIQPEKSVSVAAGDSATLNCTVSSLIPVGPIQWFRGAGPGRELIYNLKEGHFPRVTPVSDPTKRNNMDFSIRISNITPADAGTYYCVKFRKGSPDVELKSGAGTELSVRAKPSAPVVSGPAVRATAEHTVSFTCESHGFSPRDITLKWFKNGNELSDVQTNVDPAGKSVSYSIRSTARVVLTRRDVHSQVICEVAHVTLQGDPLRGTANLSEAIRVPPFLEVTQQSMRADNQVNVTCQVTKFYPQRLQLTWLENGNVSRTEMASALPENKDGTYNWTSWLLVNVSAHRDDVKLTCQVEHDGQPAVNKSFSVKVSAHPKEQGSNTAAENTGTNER
Nature of the assay: ELISA, antigen coated. As to the method: (§2) ELISA assay: Solutions of huSIRPα₁, huSIRPαBIT, huSIRPβ₁ᵥ₁, huSIRPβ₁ᵥ₂, huSIRPγ and cySIRPα in phosphate buffered saline (PBS) were each added to a multiple well black polystyrene plate for ELISA and allowed to adhere for 1 h at RT. Unbound protein was removed with three washing steps using standard washing buffer. Subsequently, blocking buffer was added to the wells. After 1 h incubation at RT, the wells were washed three times with standard washing buffer. The antibodies in buffer at various concentrations were added to the wells and incubated at RT for 1 h. Unbound antibodies were removed with three washing steps using standard washing buffer. Goat anti human IgG (Fab′)₂:horse radish peroxidase (HRP) in buffer was added to the wells and incubated at RT for 1 h. 3,3′,5,5′-Tetramethylbenzidine (TMB) was added and after sufficient colour development HCl was added. Absorbance was read at 450 nm/620 nm.
With B5, the EC50 came out at 0.099 µg/mL.

Another assay addresses T4, human SIRPβ1v2 (huSIRPβ1v2) (human, UniProt Q5TFQ8 30-371).
T4 construct: Coated on the plate in ELISA; Only the Ensembl protein number is printed; also called huSIRPß1v2
Nature of the assay: ELISA, antigen coated. As to the method:
as §2
As to B5, it took 0.092 µg/mL to reach a half-maximal effect (EC50).

Another assay concerns the target T1, human SIRPγ (huSIRPγ). Nature of the assay: ELISA, antigen coated. As to the method:
as §2
For the molecule B5, the EC50 was over 100 µg/mL.

Another assay concerns the target T2, human SIRPα1 (huSIRPα1), protein antigen. Briefly: ELISA, antigen coated. The protocol: as §2
In turn, B5 returned an EC50 of 0.053 µg/mL.

The target in the next assay is T5, cynomolgus SIRPα expressed on cells (cynomolgus monkey, UniProt A0A2K5VYQ9 31-507).
T5 construct: whole, on cells; also called ExpiCHO-S (cySIRPα)
T5 sequence: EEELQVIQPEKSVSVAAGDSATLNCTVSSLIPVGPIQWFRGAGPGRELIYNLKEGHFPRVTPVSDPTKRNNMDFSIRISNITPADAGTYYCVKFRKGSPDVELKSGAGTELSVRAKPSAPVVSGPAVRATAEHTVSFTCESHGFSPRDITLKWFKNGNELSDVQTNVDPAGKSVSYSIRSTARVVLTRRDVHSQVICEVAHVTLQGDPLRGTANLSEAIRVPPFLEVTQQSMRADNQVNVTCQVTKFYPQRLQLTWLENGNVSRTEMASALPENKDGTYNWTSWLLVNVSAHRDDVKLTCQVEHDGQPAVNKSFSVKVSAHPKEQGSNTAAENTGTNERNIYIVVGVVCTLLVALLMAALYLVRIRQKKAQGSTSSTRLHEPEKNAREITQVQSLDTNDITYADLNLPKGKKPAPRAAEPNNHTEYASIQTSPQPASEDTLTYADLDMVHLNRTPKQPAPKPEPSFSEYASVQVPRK
Briefly: flow cytometry, ExpiCHO-S cells. The source says: (§3) Flow Cytometry: U937 cells endogenously expressing human SIRPαBIT antigen and cells derived from a non-engineered subclone that has been screened and isolated from CHO-S Chinese hamster ovary cells (ExpiCHO-S) cells expressing human SIRPα₁, SIRPαBIT or cySIRPα antigen (100,000 cells/well in a 96-well plate) were washed three times with ice-cold FACS buffer (1×PBS (LONZA) containing 0.2% v/w BSA (Sigma-Aldrich, St. Louis, Mo.) and 0.02% v/w NaN₃ (Sigma-Aldrich), followed by the addition of a concentration range of each primary mAb (50 μL/well) diluted in ice-cold FACS buffer. After an incubation time of 30 min at 4° C., the cells were washed three times with ice-cold FACS buffer and 50 μL/well secondary mAb (AffiniPure F(ab′)₂ fragment Goat-anti-human IgG-APC, 1:6,000 dilution, Jackson Immuno Research) was added. After 30 min at 4° C., cells were washed twice and resuspended in 150 μL FACS buffer. Fluorescence intensities were determined by flow cytometry (BD FACSVerse, Franklin Lakes, N.J.) and indicated as the median fluorescence intensity (MFI-Median) for U937 cells and ExpiCHO-S cells. Curves were fitted by nonlinear regression using the sigmoidal dose-response equation with variable slope (four parameters) in GraphPad Prism (version 7.02 for Windows, GraphPad, San Diego, Calif.). EC₅₀ values were calculated as the concentration in μg/mL that gives a response half way between bottom and top of the curve, when using a 4-parameter logistic fit.
As to B1, the concentration for a half-maximal effect (EC50) stood at 0.32 µg/mL.
On to B2, for which the EC50 turned out to be 0.44 µg/mL.
For the molecule B3, the EC50 was 0.38 µg/mL.
Still for that read-out and setting: to B4 belongs 0.27 µg/mL; to B5, 0.18 µg/mL; to B6, 0.17 µg/mL.

In the next assay the target is T6, human SIRPα1 expressed on cells (human, UniProt P78324 31-504).
T6 construct: whole, on cells; also called ExpiCHO-S (huSIRPα1); CHO cells expressing huSIRPα1
T6 sequence (P78324 other isoform, or with tags, fused parts or gaps limits assumed): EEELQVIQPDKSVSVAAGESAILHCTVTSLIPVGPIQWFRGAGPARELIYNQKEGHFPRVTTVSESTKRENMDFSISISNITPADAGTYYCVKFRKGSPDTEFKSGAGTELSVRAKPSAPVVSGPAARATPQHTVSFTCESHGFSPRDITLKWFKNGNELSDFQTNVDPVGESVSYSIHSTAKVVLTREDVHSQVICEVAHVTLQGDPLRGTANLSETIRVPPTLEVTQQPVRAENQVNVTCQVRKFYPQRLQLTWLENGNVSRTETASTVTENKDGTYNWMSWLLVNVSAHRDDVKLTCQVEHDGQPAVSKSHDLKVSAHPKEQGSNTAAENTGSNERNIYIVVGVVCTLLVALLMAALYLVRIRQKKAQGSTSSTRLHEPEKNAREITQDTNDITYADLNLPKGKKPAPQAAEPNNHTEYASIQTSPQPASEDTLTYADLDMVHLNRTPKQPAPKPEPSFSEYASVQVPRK
Nature of the assay: flow cytometry, ExpiCHO-S cells.
Excerpt: as §3
B1 showed an EC50 of 1.05 µg/mL.
B2 registered a half-maximal effective concentration (EC50) of 0.36 µg/mL.
The same measure, in the same setting: to B3 belongs 0.37 µg/mL.
On the same count and under the same terms, the figure for B4 is 0.38 µg/mL.
Molecule B5 came in with a concentration for a half-maximal effect (EC50) of 0.41 µg/mL.
B6 showed an EC50 of 0.1 µg/mL.
